For this data set, the target named is TALEN T3 pair (T3L/T3R) (artificial) (UniProt Q56830+Q56830). The experiment in a line: cell_activity. The conditions noted are these: CD34+ cells.

The substance FAM5C off-target locus showed an activity (mock 0.02%, p=0.0015, not significant in K562 or CD4+) of 0.05 % indels.

In turn, CNOT10 off-target locus gave an activity (mock 0.03%, p<0.0001, off-target) of 0.25 % indels.

These data come from US20200392459.
